From PMC6267984

Molecular target: Orai1-CFP (UniProt Q96D31)
Chain of UniProt Q96D31 (Q96D31 whole entry): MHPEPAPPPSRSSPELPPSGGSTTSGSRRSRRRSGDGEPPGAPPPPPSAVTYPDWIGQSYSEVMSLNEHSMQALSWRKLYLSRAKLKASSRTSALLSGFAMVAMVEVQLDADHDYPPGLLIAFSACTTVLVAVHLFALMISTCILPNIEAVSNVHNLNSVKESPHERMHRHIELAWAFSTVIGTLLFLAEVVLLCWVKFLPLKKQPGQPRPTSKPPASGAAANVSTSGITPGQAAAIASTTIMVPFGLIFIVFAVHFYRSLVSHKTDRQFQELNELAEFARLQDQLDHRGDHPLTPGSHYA

Row | Substance | constitutive Ca2+ entry at rest
1 | STIM1-G379E (from UniProt Q13586 23-685) (natural protein) | 6.6 nM
2 | STIM1-G379E-ΔK (domain or fragment) | 3.5 nM
